# Source: patent US20080102459A1, “Method of Screening Antiobesity Agents” (ASTELLAS PHARMA INC., priority 2004, published 2008)
# B1: AGF protein: angiopoietin-related growth factor protein, species not stated in Example 16 (protein, UniProt Q8NI99 21-470, looked up)
# Angiopoietin-related protein 6: RAGAPRCTYTFVLPPQKFTGAVCWSGPASTRATPEAANASELAALRMRVGRHEELLRELQRLAAADGAVAGEVRALRKESRGLSARLGQLRAQLQHEAGPGAGPGADLGAEPAAALALLGERVLNASAEAQRAAARFHQLDVKFRELAQLVTQQSSLIARLERLCPGGAGGQQQVLPPPPLVPVVPVRLVGSTSDTSRMLDPAPEPQRDQTQRQQEPMASPMPAGHPAVPTKPVGPWQDCAEARQAGHEQSGVYELRVGRHVVSVWCEQQLEGGGWTVIQRRQDGSVNFFTTWQHYKAGFGRPDGEYWLGLEPVYQLTSRGDHELLVLLEDWGGRGARAHYDGFSLEPESDHYRLRLGQYHGDAGDSLSWHNDKPFSTVDRDRDSYSGNCALYQRGGWWYHACAHSNLNGVWHHGGHYRSRYQDGVYWAEFRGGAYSLRKAAMLIRPLKL
# B2: human AGF protein: FLAG-tagged recombinant human angiopoietin-related growth factor purified from HEK293 culture supernatant (protein)
# chain: B1 Angiopoietin-related protein 6
# modifications: left off: small tags and cut ends
# notes: FLAG-tagged recombinant human angiopoietin-related growth factor purified from HEK293 culture supernatant
# B3: mouse AGF protein: FLAG-tagged recombinant mouse angiopoietin-related growth factor purified from HEK293 culture supernatant (protein)
# chain: ARCRVTLVLSPQKATSAVCRSSEATQDSELATLRMRLGRHEELLRALQRRAAEGGALADEVRALREHSLTLNTRLGQLRAQLQQEARAEPDLGAEPAAALGLLAERALDAEAEARRTTARLQQLDAQLREHAQLMSQHSSLLGRLQRACAGPERGQQQVLPLPLAPLVPLSLVGSASNTSRRLDQTPEHQREQSLRQQGPPSSLLPTGHLAVPTRPVGPWRDCAEAHGAGHWQSGVYDLRLGRRVVAVWCEQQQEGGGWTVIQRRQDGSVNFFTNWQHYKAGFGRPEGEYWLGLEPVHQVTSRGDHELLILLEDWGGRAARAHYDSFSLEPESDHYRLRLGQYHGDAGDSLSWHNDKPFSTVDRDRDSYSGNCALYHRGGWWYHACAHSNLNGVWYHGGHYRSRYQDGVYWAEFRGGAYSLKKAVMLTRLVRL
# modifications: left off: small tags and cut ends
# notes: FLAG-tagged recombinant mouse angiopoietin-related growth factor purified from HEK293 culture supernatant
# Assays:
# AGF gene = assay: Amount of AGF gene expressed in C2C12 cells by quantitative PCR; assay type: cell-based, mouse; conditions: 48 hours, compensated by cyclophilin, insulin at 100 nmol/L
# Experimental: C2C12 cells (ATCC No.: CRL-1772) were added to a 24-well collagen-coated plate (ASAHI TECHNO GLASS) to become 20000 cells per well, and cultured with a Dulbecco's modified Eagle's medium (DMEM) supplemented with 15% fetal bovine serum, for one day. After insulin (Biomedical Technologies Inc) was added to the medium to a final concentration of 100 nmol/L, or after the medium was changed to the culture supernatant of 3T3-L1 prepared in Example 11, the C2C12 cells were cultured for 48 hours. As a control, the C2C12 cells were cultured with DMEM supplemented with 15% fetal bovine serum for 48 hours, without such treatments. After the cultivation, total RNAs were prepared from treated cells using an RNeasy Mini Kit (Qiagen) in accordance with a protocol attached thereto, and 500 ng thereof was converted to cDNAs using a Thermoscript RT-PCR system kit (Invitrogen).
# Amounts of AGF gene expressed in C2C12 cells were measured by a quantitative PCR, using DNAs of SEQ ID NOS: 29 and 30 as primers for amplifying the mouse AGF, cDNAs (derived from culture supernatants of C2C12 cells) prepared in Example 12 as a template, and a sequence detector (ABI PRISM 7900; Applied Biosystems). […]
# MAPK [1] = assay: MAPK phosphorylation by AGF stimulation in HUVEC; assay type: cell-based, human; conditions: HUVEC instead of C2C12
# MAPK p44 = assay: MAPK phosphorylation by AGF stimulation, Western blotting, C2C12 cells differentiated into muscle; assay type: cell-based, mouse; conditions: AGF protein 1 μg/mL, 10 minutes, versus PBS
# Experimental: (§1) C2C12 cells were cultured with a growth medium (DMEM supplemented with 10% FCS) in a type I collagen coated 12-well plate to become confluent. After the medium was changed to a differentiation medium (DMEM supplemented with 2% horse serum), the C2C12 cells were cultured for 7 days to differentiate them into muscle. The cells were cultured in a serum-free medium containing 1% BSA, and the medium was changed to the same medium. The AGF protein (final concentration=1 μg/mL) or an equal volume of PBS was added. After 10 minutes, the medium was remove by suction, and the reaction was stopped by adding 50 μL of a solution for cell lysis [50 mmol/L HEPES (pH7.2), 1% Triton X-100, 10% glycerol, 10 mmol/L Na4P2O7, 100 mmol/L NaF, 100 μmol/L Na3VO4, 40 mmol/L EDTA, 50 μg/mL aprotinin, 1 mmol/L phenylmethyl sulfonyl fluoride (PMSF), 0.1 mmol/L leupeptin, and 25 μmol/L pepstatin A] to the cells. To each cell lysate sample obtained, an SDS-sample buffer [20% glycerol, 130 mmol/L Tris-HCl (pH6.8), 10% 2-mercaptoethanol, 6% SDS, and 0.2 mg/mL bromphenol blue] was added, and each sample was subjected to SDS-PAGE and blotted to a polyvinylidene fluoride (PVDF) membrane. Western blotting was carried out, using an anti-phosphorylated MAPK p38 antibody (Cell signaling #9211), an anti-phosphorylated MAPK p42/p44 antibody (Cell signaling #9101), an anti-MAPK p38 antibody (Cell signaling #9212), or an anti-MAPK p42/44 antibody (Cell signaling #9102) as the first antibody and an HRP-labeled anti-mouse IgG antibody (Example 9) as the second antibody, to detect a phosphorylation of MAPK p38, MAPK p42, and MAPK p44. The result of Western blotting was scanned using a scanner, and a concentration of each phosphorylated band was quantitated by an image analyzing software.
# MAPK p38 = assay: as above; assay type: cell-based, mouse; conditions: AGF protein 1 μg/mL, 10 minutes, versus PBS
# Experimental: as §1
# MAPK p42 = assay: as above; assay type: cell-based, mouse; conditions: AGF protein 1 μg/mL, 10 minutes, versus PBS
# Experimental: as §1
# MAPK [2] = assay: MAPK phosphorylation by AGF stimulation in ATDC5; assay type: cell-based; conditions: ATDC5 instead of C2C12
# ATDC5 cells = assay: Binding of AGF protein to cell line, flow cytometry; conditions: protein 10 μg/mL, 4° C., 30 minutes; PI negative cells
# Experimental: ATDC5 cells were cultured in a growth medium (DMEM/F12 with 5% FCS) to become subconfluent, and removed from a plate by a cell scraper. The cells were washed twice with an FCM buffer (0.1% BSA/1 mmol/L CaCl2/1 mmol/L MgCl2/PBS), and reacted with or without the mouse AGF protein or the human AGF protein at 4° C. for 30 minutes, at a final concentration of 10 μg/mL of the protein. The cells were washed with the FCM buffer, and reacted with fluorescein isothiocyanate (FITC)-labeled M2 antibody (Sigma) at 4° C. for 30 minutes, at a final concentration of 10 μg/mL. The cells were washed three times with the FCM buffer, and propidium iodide (PI) was added to the cells at a final concentration of 1 μg/mL, to stain death cells. The cells were analyzed using a flow cytometer (Cytomics FC 500; Beckman Coulter, Inc.), and an FITC intensity derived from PI negative cells other than death cells was measured.
# Since the FLAG sequence was added to the human AGF protein and the mouse AGF protein, when the M2 antibody specific to the FLAG sequence was used, the FITC-labeled M2 antibody bound to the AGF protein which bound to cells, and thus, the fluorescence intensity of cells to which the AGF protein bound was increased. […]
molecule,measurement,setting,value
insulin,induction of AGF expression in comparison with untreated control,AGF gene,approximately 6 times
B1,phosphorylation of MAPK,MAPK [1],promoted
same,increase of phosphorylation in phosphorylated MAPK p44,MAPK p44,4.3 times
same,increase of phosphorylation in phosphorylated MAPK p38,MAPK p38,1.6 times
same,increase of phosphorylation in phosphorylated MAPK p42,MAPK p42,3.4 times
same,phosphorylation of MAPK,MAPK [2],promoted
B2,increase of the fluorescence intensity (FITC-labeled M2 antibody) of cells,ATDC5 cells,8.1 times
B3,increase of the fluorescence intensity (FITC-labeled M2 antibody) of cells,ATDC5 cells,1.5 times
